{
  "source": "patent US20090042785A1",
  "about": "(Pieris, published 2009)",
  "binders": {"B1": {"name": "hNGAL mutein S140.4-O10 without T7 tag (designed binder)", "chain": "QDSTSDLIPAPPLSKVPLQQNFQDNQFHGKWYVVGLAGNRILRDDQHPMNMYATIYELKEDKSYNVTSVISSHKKCEYTIATFVPGSQPGEFTLGNIKSYGDKTSYLVRVVSTDYNQYAVVFFKLAEDNAEFFAITIYGRTKELASELKENFIRFSKSLGLPENHIVFPVPIDQCIDG", "notes": "also called S140.4-O10 (-T7 tag); S140.4-O10(-T7)"}},
  "key": {"[1]": {"molecular_target": "T1, human CTLA-4-Fc (Chimerigen) (human, UniProt P16410 36-161; P01857 99-330 = IgG part, limits assumed)", "T1 construct": "extracellular domain;domain: Fc portion; Bought protein; also called hCTLA-4-Fc; huCTLA-4-Ig", "experiment": "SPR as in Example 9"}, "mCTLA-4-Fc (R&D Systems)": {"molecular_target": "mCTLA-4-Fc (R&D Systems) (mouse, UniProt P09793 36-162)", "sequence (P09793 whole entry)": "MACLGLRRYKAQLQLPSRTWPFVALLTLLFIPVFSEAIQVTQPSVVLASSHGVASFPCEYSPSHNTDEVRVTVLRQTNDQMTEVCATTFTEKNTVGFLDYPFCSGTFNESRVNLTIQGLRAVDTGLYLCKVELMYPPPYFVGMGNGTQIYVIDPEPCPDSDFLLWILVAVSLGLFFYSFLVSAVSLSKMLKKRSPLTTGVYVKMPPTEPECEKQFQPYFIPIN", "experiment": "SPR as in Example 9"}, "[2]": {"molecular_target": "T1, human CTLA-4-Fc (Chimerigen)", "experiment": "SPR-Affinity of the monomer towards hCTLA-4-Fc"}, "[3]": {"molecular_target": "T1, human CTLA-4-Fc (Chimerigen)", "experiment": "FACS competition: inhibition of 2.5 nM hCTLA-4 Fc binding to Raji cells (B7.1, B7.2)"}, "[4]": {"molecular_target": "T2, mouse CTLA-4 Fc (Chimerigen) (mouse, UniProt P09793 36-161)", "T2 construct": "also called muCTLA-4-Ig; muCTLA-4-Fc; not shown: Fc part not described; detected with anti-mouse IgG-phycoerythrin", "experiment": "FACS competition: inhibition of 2.5 nM mCTLA-4 Fc binding to Raji cells (B7.1, B7.2)"}},
  "data": [
    {"binder": "B1", "values": [
      {"measurement": "Kd", "setting": "[1]", "result": 3.9, "unit": "nM"},
      {"measurement": "koff", "setting": "[1]", "result": 0.000108, "unit": "s⁻¹"},
      {"measurement": "kon", "setting": "[1]", "result": 27700, "unit": "M⁻¹ s⁻¹"},
      {"measurement": "Kd", "setting": "mCTLA-4-Fc (R&D Systems)", "result": 15.3, "unit": "nM"},
      {"measurement": "koff", "setting": "mCTLA-4-Fc (R&D Systems)", "result": 0.000416, "unit": "s⁻¹"},
      {"measurement": "kon", "setting": "mCTLA-4-Fc (R&D Systems)", "result": 27200, "unit": "M⁻¹ s⁻¹"},
      {"measurement": "Kd", "setting": "[2]", "result": 3, "unit": "nM"},
      {"measurement": "IC50", "setting": "[3]", "result": 2.5, "unit": "nM"},
      {"measurement": "IC50", "setting": "[4]", "result": 15.5, "unit": "nM"}
    ]}
  ]
}
